The conditions of series [1]: clinical trials, moderate to severe psoriasis; ref [7]–[9]; cited from earlier work. The source says: Augmented expression of IL-17A is linked with various autoimmune disorders. Therefore, blocking activity of IL-17A has been of great therapeutic interest. Two approved antibody based therapeutics targeting IL-17A, Secukinumab and Ixekizumab, are currently being used for treatment of moderate to severe psoriasis. […] Moreover, current advanced clinical trials have shown promising results for treatment of ankylosing spondylitis and psoriatic arthritis ...

The target of another series is T1, IL-17A (Homo sapiens, UniProt Q16552).
T1 construct: His-tag; Flag-tag; made in house; host or cells: Sf9 insect cells (baculovirus)
In words: Surface plasmon resonance (BIAcore T200) binding of peptides to captured Avi-tagged IL-17A. As to conditions: 8°C, 50 μl/min, 10 mM HEPES pH 7.5, 150 mM NaCl, 0.005% P20, 3% DMSO; global fit, 1:1 binding model; read-out: SPR KD1. On the technique in general: In SPR one partner is held on a chip, and binding of the other changes the refractive index at the surface.

Series [2] deals with the molecule itself. In words: crystal structure; IL-17A at 7.1 mg/ml with 2 mM peptide; crystals at 8°C in 20% PEG 3350, 200 mM lithium chloride; 1.6 Å.
Series [3] concerns the target Avi-tagged IL-17A (IL-17A molecule with a single biotin tag per dimer) (human) (UniProt Q16552). In words: SPR; Avi-tagged IL-17A (6000–9000 RU) captured on a streptavidin chip; peptides flowed at 50 μl/min; 8°C; 10 mM HEPES pH 7.5, 150 mM NaCl, 0.005% P20, 3% DMSO; global fit, 1:1 binding model.
The target is the same in series [4]. In words: AlphaScreen or HTRF; AlphaLISA competition: 2 nM IL-17RA-flag and 2 nM Avi-tagged IL-17A-His with peptide dilutions, 2 h at room temperature; streptavidin donor and anti-FLAG acceptor beads; 20 mM HEPES, 150 mM NaCl, 0.05% Tween-20, 0.1% HSA, pH 7, 1% DMSO; relative IC50, four parameter fit. On the technique in general: Bead proximity is the source of the signal in Alpha formats.

As for “Ixekizumab: approved antibody based therapeutic targeting IL-17A”, in series [1], the “patient population with at least 75% reduction of disease severity (PASI75)” value is 80%.

In the case of “Secukinumab: approved antibody based therapeutic targeting IL-17A”, the “patient population with at least 75% reduction of disease severity (PASI75)” value in series [1] was 80%. As to `CSCC[C@@H]1NC(=O)[C@H](CC(=O)O)NC(=O)[C@H](Cc2ccc(O)cc2)NC(=O)[C@H](CCC(=O)O)NC(=O)[C@H](CC(C)C)NC(=O)[C@H](C(C)C)NC(=O)[C@H](Cc2c[nH]c3ccccc23)NC(=O)[C@@H](N)CSSC[C@@H](C(=O)N[C@@H](CCCNC(=N)N)C(=O)O)NC(=O)[C@H](Cc2c[nH]cn2)NC(=O)[C@H](CC(C)C)NC(=O)[C@H](C)NC(=O)CNC(=O)[C@H](Cc2ccccc2)NC1=O` [18–902], the Kd on IL-17A turned out to be 1300 nM.

B1: IL-17A residues 38–155 with the mutations N68D/C129S (ligand, human, UniProt Q16552 38-155, looked up)
chain: DKNFPRTVMVNLNIHNRNTNTNPKRSSDYYDRSTSPWNLHRNEDPERYPSVIWEAKCRHLGCINADGNVDYHMNSVPIQQEILVLRREPPHSPNSFRLEKILVSVGCTCVTPIVHHVA
notes: construct numbers and the two mutations count on the precursor protein; Crystallography construct
As to B1, the binding result in series [2] is recorded as “binds”.

In series [3], CLDLQYDMFGALHCV [18–913] displayed a Kd of 3870 nM, a koff of 0.0528 s⁻¹ and a kon of 13700 M⁻¹ s⁻¹. The molecule further returned a half-maximal inhibitory concentration (IC50) in series [4] of 1900 nM.

For orientation: koff means the first-order rate constant of dissociation. Lower therefore signals a long-lived complex. Usually kon stands for the second-order rate constant of association. Broadly, the IC50 is the point on the concentration scale where inhibition reaches its midpoint.

The values above are taken from PMC5766103 (PLoS ONE, 2018).
